Assay results published in patent publication US20250262210A1 (TRUSTEES OF COLUMBIA UNIVERSITY IN THE CITY OF NEW YORK, published 2025).

Experiments:
Experiment in all cases: IP/MS, LZTR1 R810W-FLAG, U87
ALPK2 = ALPK2 (human, UniProt Q86TB3 1-2170)
How it was run: (§1)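 Gel slices were reduced with 5 mM DTT, alkylated with 11 mM IAA and digested overnight at 37° C. with trypsin. Peptides were analysed on an Orbitrap Fusion Tribrid by LC-MS/MS.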

CTDP1 = molecular target: T1, CTDP1 (human, UniProt Q9Y5B0 1-961, limits assumed)
T1 sequence (looked up): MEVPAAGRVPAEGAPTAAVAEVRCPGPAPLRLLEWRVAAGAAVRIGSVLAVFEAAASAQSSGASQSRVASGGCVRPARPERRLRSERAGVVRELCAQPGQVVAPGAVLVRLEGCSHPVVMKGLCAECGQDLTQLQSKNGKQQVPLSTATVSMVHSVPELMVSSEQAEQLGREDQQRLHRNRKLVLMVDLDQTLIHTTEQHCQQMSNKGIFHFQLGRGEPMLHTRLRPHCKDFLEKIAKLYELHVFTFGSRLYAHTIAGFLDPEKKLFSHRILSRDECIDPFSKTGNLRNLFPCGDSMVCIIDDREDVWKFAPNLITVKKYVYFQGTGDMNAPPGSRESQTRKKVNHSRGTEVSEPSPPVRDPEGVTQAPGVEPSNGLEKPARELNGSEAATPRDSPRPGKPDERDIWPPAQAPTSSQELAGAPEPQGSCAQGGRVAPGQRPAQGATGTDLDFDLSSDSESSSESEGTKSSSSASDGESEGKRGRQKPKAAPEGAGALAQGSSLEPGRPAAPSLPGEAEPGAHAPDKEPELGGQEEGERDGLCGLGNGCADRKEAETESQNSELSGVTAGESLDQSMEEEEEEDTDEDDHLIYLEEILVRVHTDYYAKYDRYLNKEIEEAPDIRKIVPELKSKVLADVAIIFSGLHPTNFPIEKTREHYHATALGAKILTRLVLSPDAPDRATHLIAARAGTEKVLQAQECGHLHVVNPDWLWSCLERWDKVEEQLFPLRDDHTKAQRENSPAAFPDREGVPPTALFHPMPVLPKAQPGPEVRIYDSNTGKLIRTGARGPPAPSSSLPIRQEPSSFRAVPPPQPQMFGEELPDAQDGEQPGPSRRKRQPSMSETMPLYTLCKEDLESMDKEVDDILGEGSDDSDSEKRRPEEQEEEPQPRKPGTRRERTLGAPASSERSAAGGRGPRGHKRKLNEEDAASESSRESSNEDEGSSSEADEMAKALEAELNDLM
How it was run: as §1

POLR1A = POLR1A (human, UniProt O95602 1-1720)
POLR1A, sequence (O95602 whole entry): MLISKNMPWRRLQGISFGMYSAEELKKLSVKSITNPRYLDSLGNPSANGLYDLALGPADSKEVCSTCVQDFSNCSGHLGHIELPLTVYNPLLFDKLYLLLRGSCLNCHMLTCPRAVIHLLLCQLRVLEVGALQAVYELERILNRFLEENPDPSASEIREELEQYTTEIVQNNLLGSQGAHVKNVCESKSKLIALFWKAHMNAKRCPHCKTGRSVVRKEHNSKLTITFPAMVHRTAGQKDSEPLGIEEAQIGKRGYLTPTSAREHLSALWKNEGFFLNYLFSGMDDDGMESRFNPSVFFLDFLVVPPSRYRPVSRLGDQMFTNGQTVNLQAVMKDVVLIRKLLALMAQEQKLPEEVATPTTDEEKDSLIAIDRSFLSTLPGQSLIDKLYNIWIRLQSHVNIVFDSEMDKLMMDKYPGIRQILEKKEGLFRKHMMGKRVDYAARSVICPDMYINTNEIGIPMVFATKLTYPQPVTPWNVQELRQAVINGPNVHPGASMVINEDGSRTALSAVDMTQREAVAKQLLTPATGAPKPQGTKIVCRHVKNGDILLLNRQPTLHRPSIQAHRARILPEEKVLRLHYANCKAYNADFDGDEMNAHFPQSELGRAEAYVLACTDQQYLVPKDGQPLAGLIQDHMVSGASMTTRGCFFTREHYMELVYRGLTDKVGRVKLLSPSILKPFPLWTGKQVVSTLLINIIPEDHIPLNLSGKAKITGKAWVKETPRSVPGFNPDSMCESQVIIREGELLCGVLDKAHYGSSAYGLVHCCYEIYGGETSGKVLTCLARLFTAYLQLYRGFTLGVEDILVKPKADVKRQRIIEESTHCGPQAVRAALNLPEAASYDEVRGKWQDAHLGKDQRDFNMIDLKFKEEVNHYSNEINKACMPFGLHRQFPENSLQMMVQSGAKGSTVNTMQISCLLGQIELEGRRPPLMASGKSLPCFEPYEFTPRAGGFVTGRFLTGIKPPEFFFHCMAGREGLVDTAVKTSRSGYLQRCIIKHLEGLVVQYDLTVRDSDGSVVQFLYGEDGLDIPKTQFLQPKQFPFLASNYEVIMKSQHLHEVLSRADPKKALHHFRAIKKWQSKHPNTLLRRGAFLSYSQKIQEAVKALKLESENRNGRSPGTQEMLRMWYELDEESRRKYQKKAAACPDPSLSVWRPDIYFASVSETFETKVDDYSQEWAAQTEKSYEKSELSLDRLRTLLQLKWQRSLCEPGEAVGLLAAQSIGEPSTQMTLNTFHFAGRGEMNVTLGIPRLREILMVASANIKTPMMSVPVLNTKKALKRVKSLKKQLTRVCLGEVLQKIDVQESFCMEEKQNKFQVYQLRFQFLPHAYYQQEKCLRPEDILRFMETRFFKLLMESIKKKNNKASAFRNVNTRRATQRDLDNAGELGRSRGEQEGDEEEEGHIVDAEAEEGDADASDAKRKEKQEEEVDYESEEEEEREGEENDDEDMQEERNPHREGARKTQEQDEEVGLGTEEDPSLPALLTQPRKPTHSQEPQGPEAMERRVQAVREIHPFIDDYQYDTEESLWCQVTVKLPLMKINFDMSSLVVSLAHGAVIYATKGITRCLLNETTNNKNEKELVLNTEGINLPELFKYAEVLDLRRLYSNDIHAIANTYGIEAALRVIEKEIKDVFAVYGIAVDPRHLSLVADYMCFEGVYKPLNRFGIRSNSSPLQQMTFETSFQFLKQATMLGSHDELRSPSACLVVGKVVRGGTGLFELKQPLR
How it was run: as §1

TTI1 = TTI1 (human, UniProt O43156 1-1089)
TTI1, sequence (O43156 whole entry): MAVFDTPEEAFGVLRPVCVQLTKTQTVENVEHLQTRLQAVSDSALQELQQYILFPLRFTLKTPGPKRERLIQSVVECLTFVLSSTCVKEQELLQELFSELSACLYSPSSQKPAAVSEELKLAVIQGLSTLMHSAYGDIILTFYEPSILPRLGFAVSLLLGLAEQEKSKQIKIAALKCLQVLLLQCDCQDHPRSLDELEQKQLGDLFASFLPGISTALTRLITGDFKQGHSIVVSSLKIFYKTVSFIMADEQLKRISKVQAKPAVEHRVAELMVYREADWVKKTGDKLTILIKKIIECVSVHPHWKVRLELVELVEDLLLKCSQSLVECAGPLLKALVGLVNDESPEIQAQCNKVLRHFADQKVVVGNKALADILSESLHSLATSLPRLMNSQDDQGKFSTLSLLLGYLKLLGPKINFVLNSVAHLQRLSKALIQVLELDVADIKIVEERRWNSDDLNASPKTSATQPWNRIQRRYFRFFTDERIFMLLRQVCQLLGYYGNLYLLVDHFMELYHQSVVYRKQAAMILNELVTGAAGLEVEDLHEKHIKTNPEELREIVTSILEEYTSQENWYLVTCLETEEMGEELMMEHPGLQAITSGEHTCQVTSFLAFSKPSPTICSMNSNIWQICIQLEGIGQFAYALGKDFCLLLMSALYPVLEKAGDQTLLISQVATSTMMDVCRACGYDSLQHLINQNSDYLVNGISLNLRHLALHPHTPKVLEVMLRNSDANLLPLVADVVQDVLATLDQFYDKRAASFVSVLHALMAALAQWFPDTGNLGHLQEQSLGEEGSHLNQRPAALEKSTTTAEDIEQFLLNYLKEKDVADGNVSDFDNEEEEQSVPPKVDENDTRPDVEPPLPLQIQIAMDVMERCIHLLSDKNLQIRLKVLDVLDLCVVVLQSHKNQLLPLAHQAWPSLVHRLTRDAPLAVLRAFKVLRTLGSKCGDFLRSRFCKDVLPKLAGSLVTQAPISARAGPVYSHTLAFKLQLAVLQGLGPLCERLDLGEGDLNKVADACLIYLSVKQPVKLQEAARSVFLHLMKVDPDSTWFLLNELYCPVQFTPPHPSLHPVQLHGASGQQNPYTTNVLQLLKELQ
How it was run: as §1

THADA = THADA (human, UniProt Q6YHU6 1-1953, limits assumed)
How it was run: as §1

Measured: binding result

ALPK2, sequence (Q86TB3 whole entry, the tested form may be a part): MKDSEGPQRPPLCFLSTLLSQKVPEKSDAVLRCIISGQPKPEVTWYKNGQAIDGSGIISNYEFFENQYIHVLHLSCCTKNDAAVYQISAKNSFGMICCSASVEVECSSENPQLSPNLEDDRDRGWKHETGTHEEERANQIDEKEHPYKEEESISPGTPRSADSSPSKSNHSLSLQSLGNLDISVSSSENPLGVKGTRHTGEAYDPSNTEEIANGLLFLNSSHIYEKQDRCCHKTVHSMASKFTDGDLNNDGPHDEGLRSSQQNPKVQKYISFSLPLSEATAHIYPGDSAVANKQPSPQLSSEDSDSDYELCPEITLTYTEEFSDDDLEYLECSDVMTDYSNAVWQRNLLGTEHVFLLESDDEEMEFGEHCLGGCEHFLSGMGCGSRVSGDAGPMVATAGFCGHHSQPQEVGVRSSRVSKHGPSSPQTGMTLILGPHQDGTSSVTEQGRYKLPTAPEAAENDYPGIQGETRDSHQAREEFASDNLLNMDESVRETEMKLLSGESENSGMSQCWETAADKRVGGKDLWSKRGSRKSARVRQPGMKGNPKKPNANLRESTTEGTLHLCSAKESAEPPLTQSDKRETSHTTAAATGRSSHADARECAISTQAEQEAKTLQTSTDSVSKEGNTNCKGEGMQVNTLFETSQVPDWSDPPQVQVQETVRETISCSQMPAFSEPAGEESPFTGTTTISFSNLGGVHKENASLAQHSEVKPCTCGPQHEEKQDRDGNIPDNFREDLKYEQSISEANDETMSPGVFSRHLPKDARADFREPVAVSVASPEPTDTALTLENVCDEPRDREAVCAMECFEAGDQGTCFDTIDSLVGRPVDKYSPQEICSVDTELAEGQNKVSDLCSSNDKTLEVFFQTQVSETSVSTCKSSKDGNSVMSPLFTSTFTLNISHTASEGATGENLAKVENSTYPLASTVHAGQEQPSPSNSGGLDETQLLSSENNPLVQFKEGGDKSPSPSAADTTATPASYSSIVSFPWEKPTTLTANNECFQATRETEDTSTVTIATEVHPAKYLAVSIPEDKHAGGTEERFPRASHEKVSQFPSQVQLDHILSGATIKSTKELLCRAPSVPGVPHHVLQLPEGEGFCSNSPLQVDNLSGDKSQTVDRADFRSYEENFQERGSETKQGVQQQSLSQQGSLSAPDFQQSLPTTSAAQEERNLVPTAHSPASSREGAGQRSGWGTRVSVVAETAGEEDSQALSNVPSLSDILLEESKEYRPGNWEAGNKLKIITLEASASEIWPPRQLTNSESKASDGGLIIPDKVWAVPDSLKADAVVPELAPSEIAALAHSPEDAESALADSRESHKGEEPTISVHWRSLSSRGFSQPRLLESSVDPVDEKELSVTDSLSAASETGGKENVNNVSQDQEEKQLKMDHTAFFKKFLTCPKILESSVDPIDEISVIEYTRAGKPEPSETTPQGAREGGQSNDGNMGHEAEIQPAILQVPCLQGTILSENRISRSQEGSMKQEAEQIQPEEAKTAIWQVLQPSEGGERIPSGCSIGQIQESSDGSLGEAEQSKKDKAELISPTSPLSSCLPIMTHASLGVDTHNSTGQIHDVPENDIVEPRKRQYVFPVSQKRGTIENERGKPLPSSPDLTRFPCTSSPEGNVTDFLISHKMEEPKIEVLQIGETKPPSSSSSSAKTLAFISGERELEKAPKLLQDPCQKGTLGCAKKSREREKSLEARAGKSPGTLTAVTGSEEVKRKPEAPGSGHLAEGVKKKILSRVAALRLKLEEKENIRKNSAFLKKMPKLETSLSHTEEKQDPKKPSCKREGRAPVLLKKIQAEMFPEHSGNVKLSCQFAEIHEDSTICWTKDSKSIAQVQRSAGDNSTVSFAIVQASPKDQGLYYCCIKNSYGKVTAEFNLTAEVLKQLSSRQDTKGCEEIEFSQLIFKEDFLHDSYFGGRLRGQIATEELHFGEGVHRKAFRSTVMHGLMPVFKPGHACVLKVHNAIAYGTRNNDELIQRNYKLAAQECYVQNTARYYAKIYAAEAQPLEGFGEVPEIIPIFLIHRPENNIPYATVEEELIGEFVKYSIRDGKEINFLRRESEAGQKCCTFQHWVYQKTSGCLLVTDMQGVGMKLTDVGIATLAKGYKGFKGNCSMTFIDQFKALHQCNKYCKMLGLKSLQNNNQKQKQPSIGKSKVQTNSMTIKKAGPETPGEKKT

B1: LZTR1 R810W-FLAG (other, human, UniProt Q8N653 1-840, looked up)
chain: MAGPGSTGGQIGAAALAGGARSKVAPSVDFDHSCSDSVEYLTLNFGPFETVHRWRRLPPCDEFVGARRSKHTVVAYKDAIYVFGGDNGKTMLNDLLRFDVKDCSWCRAFTTGTPPAPRYHHSAVVYGSSMFVFGGYTGDIYSNSNLKNKNDLFEYKFATGQWTEWKIEGRLPVARSAHGATVYSDKLWIFAGYDGNARLNDMWTIGLQDRELTCWEEVAQSGEIPPSCCNFPVAVCRDKMFVFSGQSGAKITNNLFQFEFKDKTWTRIPTEHLLRGSPPPPQRRYGHTMVAFDRHLYVFGGAADNTLPNELHCYDVDFQTWEVVQPSSDSEVGGAEVPERACASEEVPTLTYEERVGFKKSRDVFGLDFGTTSAKQPTQPASELPSGRLFHAAAVISDAMYIFGGTVDNNIRSGEMYRFQFSCYPKCTLHEDYGRLWESRQFCDVEFVLGEKEECVQGHVAIVTARSRWLRRKITQARERLAQKLEQEAAPVPREAPGVAAGGARPPLLHVAIREAEARPFEVLMQFLYTDKIKYPRKGHVEDVLLIMDVYKLALSFQLCRLEQLCRQYIEASVDLQNVLVVCESAARLQLSQLKEHCLNFVVKESHFNQVIMMKEFERLSSPLIVEIVRRKQQPPPRTPLDQPVDIGTSLIQDMKAYLEGAGAEFCDITLLLDGHPRPAHKAILAARSSYFEAMFRSFMPEDGQVNISIGEMVPSRQAFESMLRYIYYGEVNMPPEDSLYLFAAPYYYGFYNNRLQAYCKQNLEMNVTVQNVLQILEAADKTQALDMKRHCLHIIVHQFTKVSKLPTLWSLSQQLLLDIIDSLASHISDKQCAELGADI
notes: Stably expressed in U87 cells by lentivirus; also called LZTR1-FLAG-R810W; LZTR1 RW; not shown: FLAG tag
binds: all assays above
